From patent US8088892B2, “Inhibitors of proteins from the Rho-GEF family” (Centre National de la Recherche Scientifique (C.N.R.S.), priority 2002, dated 2012) come the findings set out here.

Entries after “also recorded” stand apart in the source; their conditions may differ.

The target of one experiment is T1, Kalirin GEFD2 (KalGEFD2) (Rattus norvegicus, UniProt P97924).
T1 construct: KalGEFD2, a.a; 1850-2190, 65% identity with TrioGEFD2; made in house
The experiment is described as follows: In vitro GEF assay on RhoA. The experiment is classed as biochemical. The arrangement: key to in vitro GEF assay (inhibition): +++^2 and +^2 represent respectively a full and a partial (see FIG. 3) inhibitory effect; +++^2 and +^2 represent respectively a full and a partial (see FIG. 3) inhibitory effect; −−^2 represents a lack of inhibitory effect. The note with it: for Effect on Kalirin GEFD2 exchange activity on RhoA: 20-fold molar excess, KalGEFD2 1.7 μM. On the procedure: To test the specificity of TRIAPα inhibition in vitro, exchange experiments were performed either on RhoA with different RhoA-specific GEFs: Trio GEFD2 (0.4 μM), Kalirin GEFD2 (KalGEFD2, 1.7 μM), p63RhoGEF (Souchet et al., 2002) (0.4 μM) and Lbc (amino acids 172-598; Zheng et al., 1995) (0.4 μM), or on RhoG, with the RhoG-specific GEF domain of Trio (TrioGEFD1, 0.1 μM). Exchange assays were performed with the recombinant GEFs as described in FIG. 2A. Different concentrations of RhoGEFs were used to yield a similar nucleotide exchange efficiency. For each exchange factor, three independent experiments were done in absence (black bar) or in the presence (grey bar) of a 20-fold molar excess of TRIAPα.
An in vitro guanine nucleotide exchange (GEF) assay was used to test whether the TrioGEFD2-binding aptamers could inhibit the catalytic activity of TrioGEFD2 towards RhoA. For this purpose, the aptamers TRIAPα, TRIAPβ and TRIAPγ (including the Trx gene) were excised from pEG202 as EcoRI/NotI fragments and cloned into pGEX4T1 EcoRI/NotI. The aptamers were then expressed and purified from bacteria as GST fusion proteins, using standard procedures (Smith and Johnson, 1988). GTPase-GST fusion proteins were prepared, loaded with [^3H]GDP and the guanine nucleotide release assays were performed as described (Debant et al., 1996), using recombinant GST-TrioGEFD2 (a.a. 1848-2298), TrioDH2 (a.a. 1848-2096). For each point, 0.3 μM GTPase was mixed with or without 0.4 μM GEF in presence of non-labeled GTP, and the reaction mix was filtered after 0 min and 15 mm reaction at 25° C. The catalytic activity of TrioGEFD2 was thus measured by the decrease of the GTPase-associated radioactivity. The results are expressed as the ratio “exchange after 15 min over exchange after 0 min” (% bound [^3H]GDP-RhoA). To measure the effect of the aptamers on the exchange activity, a 20-fold molar excess of GST-TRIAPs was pre-incubated with GEFD2 (or GEFD1) for 30 min on ice before the exchange assay was carried out. For each experiment, data were obtained in triplicate.
The effect of GST-TRIAPα on other Rho-GEFs that display in vitro exchange activity on RhoA was next tested to investigate whether TRIAPα inhibition was specific of TrioGEFD2. The exchange activities of the RhoGEF Lbc (a.a. 1-424, FIG. 3)(Zheng et al., 1995) and Dbl (a.a. 495-826, data not shown) were not affected by GST-TRIAPα. The effect of GST-TRIAPα on the catalytic activity of RhoGEFs that display a high sequence similarity with TrioGEFD2 was then tested: the recently identified RhoA-specific p63RhoGEF (Souchet et al., 2002) (a.a. 149-374, 71.5% identity with TrioGEFD2, 0.4 μM) and the second Rho-GEF domain of the Trio family member Kalirin (KalGEFD2, a.a. 1850-2190, 65% identity with TrioGEFD2, 1.7 μM). Different concentrations of RhoGEFs were used to yield similar nucleotide exchange […]. For each exchange factor, three independent experiments were done in absence or in the presence of a 20-fold molar excess of GST-TRIAPα. […] Thus, the in vitro inhibitory activity of TRIAPα was selective for TrioGEFD2 (see table I for summary of the tested RhoGEFs).

For a further experiment, the system named is PC12 cells. The experiment is described as follows: NGF-induced neurite outgrowth. The experiment is classed as cell-based. To be noted: NGF 50 ng/ml. The protocol:
PC12 were transfected with GFP-TRIPα (lack squares) or GFP (white diamonds) and subjected to a time-course exposure to NGF (50 ng/ml). At each time-point cells were fixed and the number of transfected cells with neurites was counted from at least 200 cells.
Since Trio is an activator of RhoA and is expressed in PC12 cells (Estrach et al., 2002), it was analysed whether TRIPα could interfere with serum-induced neurite retraction in NGF-differentiated PC12 cells. […] After NGF treatment, cells were subjected to serum addition (DMEM medium supplemented with 10% HS and 5% fetal calf serum (FCS)) from 0 to 15 min (FIG. 6A). Cells were then fixed and permeabilised (Estrach et al., 2002) and observed as described in FIG. 5. Cells with neurites are defined as cells with neurites of at least twice the length of the cell body.
However, since the NGF treatment was performed for 16 hours, it was still possible that the effect of TRIPα on the NGF-differentiation signal was masked by the long NGF exposure. To test this hypothesis, PC12 cells expressing GFP-TRIPα or […] were subjected to a time-course exposure to NGF (50 ng/ml) for 1 to 24 hours.

With “AREGADGAICGYNLATLVMLGPSERVFCPLCEPCSSDIYELM [TRIPα, 42-amino acid peptide corresponding to the variable region of TRIAPα]”, the “Effect on Kalirin GEFD2 exchange activity on RhoA” value in the experiment with Kalirin GEFD2 (KalGEFD2) is recorded as “slightly inhibited”. Moreover, in the experiment with PC12 cells (1 to 24 hours), the “Effect on NGF-induced neurite outgrowth, time course” value is recorded as “enhances NGF-induced neurite outgrowth”. In addition, in the experiment with PC12 cells (16 hours), the “Effect on NGF-induced neurite outgrowth after 16 hours NGF” value was “had no visible effect on the NGF pathway; also recorded: does not seem to have an effect”.

B1: TRIAPα: aptamer of 154 amino acids: variable region of 42 amino acids inserted into the thioredoxin protein; tested as GST fusion (protein)
chain: MSDKIIHLTDDSFDTDVLKADGAILVDFWAEWCGPAREGADGAICGYNLATLVMLGPSERVFCPLCEPCSSDIYELMGPCKMIAPILDEIADEYQGKLTVAKLNIDQNPGTAPKYGIRGIPTLLLFKNGEVASATKVGALSKGQLKEFLDANLA
For B1, the “Effect on Kalirin GEFD2 exchange activity on RhoA” value with Kalirin GEFD2 (KalGEFD2) is listed as “weakly inhibits”; in the experiment with Kalirin GEFD2 (KalGEFD2) (listed as GST-TRIAPα), “only weakly inhibited”. In addition, the “in vitro GEF assay (inhibition)” value with Kalirin GEFD2 (KalGEFD2) (RhoGEF KalirinDH2PH2) is “+^2”.
